From IntAct's records for PubMed 24446487

Target: ospg_shifl ospG (UniProt Q99PZ6)
Sequence (Q99PZ6 whole entry): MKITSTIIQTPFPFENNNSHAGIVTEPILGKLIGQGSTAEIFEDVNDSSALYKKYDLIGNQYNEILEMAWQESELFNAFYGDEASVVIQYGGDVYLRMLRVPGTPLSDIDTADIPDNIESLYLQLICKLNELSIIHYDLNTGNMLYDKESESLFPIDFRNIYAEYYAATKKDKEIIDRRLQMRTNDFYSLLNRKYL

Chain of Ubiquitin-conjugating enzyme E2 D3 (Homo sapiens), P61077 F62A (P61077 whole entry F62A): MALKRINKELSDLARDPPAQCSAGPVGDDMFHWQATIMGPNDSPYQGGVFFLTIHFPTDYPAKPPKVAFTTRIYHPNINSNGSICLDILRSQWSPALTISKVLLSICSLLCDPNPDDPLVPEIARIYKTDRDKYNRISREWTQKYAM

Ubiquitin-conjugating enzyme E2 D3 (Homo sapiens), P61077 F62A
effect of a mutation on the interaction: disrupting interaction
